Source: patent publication US9539315B2, “Methods, agents and peptides for inhibiting matrix metalloproteinase-2 signaling” (New York University, priority 2011, dated 2017)
“Also recorded” adds a separate entry of the source.

Assays:
human TLR-2 = biological target: T1, human TLR-2 (Homo sapiens, UniProt O60603); assay: HEK-Blue-hTLR2 NF-κB SEAP reporter assay; type: cell-based; settings: MMP-2 5 mg/ml; twenty hours; with/without TLR2 blocking antibody
T1 construct: host or cells: HEK293 (HEK-Blue-hTLR2 cells)
T1 sequence (O60603 21-784): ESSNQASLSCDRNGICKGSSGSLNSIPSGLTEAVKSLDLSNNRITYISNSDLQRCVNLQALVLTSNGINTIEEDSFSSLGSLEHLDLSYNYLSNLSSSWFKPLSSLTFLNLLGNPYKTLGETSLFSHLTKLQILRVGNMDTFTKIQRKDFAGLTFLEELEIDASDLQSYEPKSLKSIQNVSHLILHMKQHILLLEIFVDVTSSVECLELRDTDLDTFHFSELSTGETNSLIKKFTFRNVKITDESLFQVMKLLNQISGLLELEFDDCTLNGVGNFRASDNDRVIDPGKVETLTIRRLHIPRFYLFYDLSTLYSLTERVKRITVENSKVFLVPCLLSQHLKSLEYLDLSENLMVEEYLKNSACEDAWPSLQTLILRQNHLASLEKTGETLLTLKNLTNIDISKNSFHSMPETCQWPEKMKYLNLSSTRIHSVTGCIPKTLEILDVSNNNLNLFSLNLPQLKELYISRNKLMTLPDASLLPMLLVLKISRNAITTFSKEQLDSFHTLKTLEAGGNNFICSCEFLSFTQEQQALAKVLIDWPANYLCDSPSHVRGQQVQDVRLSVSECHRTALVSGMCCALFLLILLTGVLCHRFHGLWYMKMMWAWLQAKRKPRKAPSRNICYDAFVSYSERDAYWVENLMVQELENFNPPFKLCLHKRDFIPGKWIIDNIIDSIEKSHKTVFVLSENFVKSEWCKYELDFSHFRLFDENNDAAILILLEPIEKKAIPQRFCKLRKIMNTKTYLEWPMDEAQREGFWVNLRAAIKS
Experimental: A) DCs were exposed to various TLR agonists for 2 days before cells were stained for OX40L. […] B) TLR2-transfected and engineered HEK cells were incubated with MMP-2 (5 mg/ml) or various controls. All conditions were also tested in the presence of a blocking antibody for TLR2. TNFα was used to activate NF-κB in a TLR-independent manner. Twenty hours later, NF-κB activation was measured.
TLR2-transfected and engineered HEK cells were incubated with MMP-2 (5 mg/ml), TLR2 agonists, recombinant PEX and 3 pools of overlapping 20-mers covering MMP-2. OLP1: mix of 22 overlapping peptides covering MMP-2 from amino-acid 1 to 220; OLP2: mix of 22 overlapping peptides covering MMP-2 from amino-acid 210 to 440; OLP3: mix of 22 overlapping peptides covering MMP-2 from amino-acid 450 to 660. Twenty hours later, NF-κB activation was measured. Neither PEX nor the peptides triggered NF-κB signaling.
TLR-2-transfected (stably) HEK-Blue™ Cells represent a very efficient high throughput reagent for screening due to an easy read-out. […] Levels of SEAP can be readily determined with QUANTI-Blue™, a detection medium that turns purple/blue in the presence of alkaline phosphatase. […] Inhibition of NF-κB activation by any agents/molecules can be assessed and confirmed in DCs (which endogenously express TLR2 or are engineered to express exogenous TLR2) in order to corroborate the initial screening results in a native or more natural context. […] TLR-2-expressing cells, such as those described herein, can be incubated with agents/molecules and molecular interactions assessed using methods, such as, e.g., co-immunoprecipitation of MMP-2 and TLR-2 from the cell lysates. […] Additional methods can be used to evaluate if MMP-2 and TLR-2 interact directly, including other affinity-based methods (e.g., affinity chromatography or panning), competitive inhibition assays, and various visualization techniques, such as fluorescence resonance energy transfer (FRET) and others which are known in the art. […]

TLR2/MyD88 complex = biological target: T2, TLR2/MyD88 complex (Homo sapiens, UniProt O60603); assay: Co-immunoprecipitation of MMP-2 and TLR2 from moDCs or TLR2-transfected HEK cells; type: binding; settings: n=3
T2 construct: endogenous in cells; host or cells: human monocyte-derived dendritic cells (moDCs); alternatively TLR2-transfected HEK cells
T2 sequence (O60603 21-784): as above
T2 sequence (Q99836 whole entry partner): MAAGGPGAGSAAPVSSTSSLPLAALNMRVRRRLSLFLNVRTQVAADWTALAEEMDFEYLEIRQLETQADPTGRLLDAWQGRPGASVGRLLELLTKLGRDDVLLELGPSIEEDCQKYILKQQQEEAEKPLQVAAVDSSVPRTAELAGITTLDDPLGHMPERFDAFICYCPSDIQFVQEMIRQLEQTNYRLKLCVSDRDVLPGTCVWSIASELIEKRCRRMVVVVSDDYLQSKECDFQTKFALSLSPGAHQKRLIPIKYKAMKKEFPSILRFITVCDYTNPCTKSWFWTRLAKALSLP
Experimental: 10^6 moDCs/lane or TLR2-transfected HEK cells were incubated for 20 min with or without 5 μg/ml MMP-2 or MMP-9 before being lysed. TLR2 A) and MMP-2 B) were immunoprecipitated using specific antibodies and protein G-agarose. Western blots for MMP-2 (≈70 kD), TLR2 (≈85 kD) and MyD88 (≈35 kD) were then performed. C and D) depict band intensities (mean of 3 independent experiments±s.d.), which are represented as a percentage of the band intensity corresponding to untreated cells. Two-tailed Student's t-tests were used to compare MMP-2- to MMP-9-treated cells. p values≦0.05 (*) were considered statistically significant.
To assess whether MMP-2 directly interacts with TLR2, moDCs and TLR2-transfected HEK cells were utlized. […] Similarly, TLR2 and MyD88 immunoprecipitated (n=3; p<0.05 compared to MMP-9-treated cells) with MMP-2 when moDCs were pre-treated with MMP-2 (FIG. 8B,D).

B1: matrix metalloproteinase-2 (protein)
chain: YNFFPRKPKWDKNQITYRIIGYTPDLDPETVDDAFARAFQVWSDVTPLRFSRIHDGEADIMINFGRWEHGDGYPFDGKDGLLAHAFAPGTGVGGDSHFDDDELWTLGEGQVVRVKYGNADGEYCKFPFLFNGKEYNSCTDTGRSDGFLWCSTTYNFEKDGKYGFCPHEALFTMGGNAEGQPCKFPFRFQGTSYDSCTTEGRTDGYRWCGTTEDYDRDKKYGFCPETAMSTVGGNSEGAPCVFPFTFLGNKYESCTSAGRSDGKMWCATTANYDDDRKWGFCPDQGYSLFLVAAHEFGHAMGLEHSQDPGALMAPIYTYTKNFRLSQDDIKGIQELYGASPDIDLGTGPTPTLGPVTPEICKQDIVFDGIAQIRGEIFFFKDRFIWRTVTPRDKPMGPLLVATFWPELPEKIDAVYEAPQEEKAVFFAGNEYWIYSASTLERGYPKPLTSLGLPPDVQRVDAAFNWSKNKKTYIFAGDKFWRYNEVKKKMDPGFPKLIADAWNAIPDNLDAVVDLQGGGHSYFFKGAYYLKLENQSLKSVKFGSIKSDWLGC
- NF-κB activation in TLR2-transfected HEK cells (human TLR-2): activates NF-κB through TLR-2 triggering; also recorded: activate NF-κB in a TLR2-dependent manner
- MMP-2 and MyD88 immunoprecipitated with TLR2 (TLR2/MyD88 complex; cells pre-treated 20 min with 5 μg/ml MMP-2 (active or inactive) or MMP-9): immunoprecipitated
- TLR2 and MyD88 immunoprecipitated with MMP-2 (TLR2/MyD88 complex; moDCs pre-treated with MMP-2): immunoprecipitated
